This assay addresses RECQL (UniProt P46063). Briefly: ID3 co-IP, Western blot. The settings on record: reference: wild type ID3; sites S65. (In western blotting, separated proteins are transferred to a membrane and probed.)

With ID3 (from UniProt Q02535) S65A, the “binding against the reference” value was “lost”.

The values above are taken from paper PMC8599806.
